Test results: US20070105162A1, “Monovalent avidin and streptavidin compositions” (Massachusetts Institute of Technology, priority 2005, published 2007)

Molecular target: biotinylated AP-neuroligin-1 on rat hippocampal neurons (mouse) (UniProt Q99K10)
Assay: cell-based or functional assay

Chain of monovalent streptavidin A1D3 conjugated to Alexa Fluor 568 (designed binder) (chain): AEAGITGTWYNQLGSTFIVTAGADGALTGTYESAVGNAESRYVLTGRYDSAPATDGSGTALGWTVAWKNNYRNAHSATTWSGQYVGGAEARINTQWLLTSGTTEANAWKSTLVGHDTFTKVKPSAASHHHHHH
Chain of monovalent streptavidin A1D3 conjugated to Alexa Fluor 568 (designed binder) (chain): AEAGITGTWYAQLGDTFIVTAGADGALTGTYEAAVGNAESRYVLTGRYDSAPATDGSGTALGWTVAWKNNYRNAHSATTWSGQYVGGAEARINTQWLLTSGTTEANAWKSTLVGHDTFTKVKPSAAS

| clusters/µm of labeled AP-neuroligin-1 after a two hour incubation [clusters/µm] | Substance |
| --- | --- |
| 0.266 | Alexa Fluor 568-conjugated wild-type streptavidin (Molecular Probes) (from UniProt P22629 37-163) |
| 0.087 | monovalent streptavidin A1D3 conjugated to Alexa Fluor 568 (designed binder) |
